Measurements: patent publication US20240279630, “ISOLATED CAS13 PROTEIN AND USE THEREOF” (GUANGZHOU REFORGENE MEDICINE CO., LTD., published 2024)

How the values were obtained:
Assay in all cases: cell_activity; reversed DR/guide order
Details in all cases: tags: NLS fusion
Cas13m.2 = target: T1, Cas13m.2 (metagenome)
T1 chain: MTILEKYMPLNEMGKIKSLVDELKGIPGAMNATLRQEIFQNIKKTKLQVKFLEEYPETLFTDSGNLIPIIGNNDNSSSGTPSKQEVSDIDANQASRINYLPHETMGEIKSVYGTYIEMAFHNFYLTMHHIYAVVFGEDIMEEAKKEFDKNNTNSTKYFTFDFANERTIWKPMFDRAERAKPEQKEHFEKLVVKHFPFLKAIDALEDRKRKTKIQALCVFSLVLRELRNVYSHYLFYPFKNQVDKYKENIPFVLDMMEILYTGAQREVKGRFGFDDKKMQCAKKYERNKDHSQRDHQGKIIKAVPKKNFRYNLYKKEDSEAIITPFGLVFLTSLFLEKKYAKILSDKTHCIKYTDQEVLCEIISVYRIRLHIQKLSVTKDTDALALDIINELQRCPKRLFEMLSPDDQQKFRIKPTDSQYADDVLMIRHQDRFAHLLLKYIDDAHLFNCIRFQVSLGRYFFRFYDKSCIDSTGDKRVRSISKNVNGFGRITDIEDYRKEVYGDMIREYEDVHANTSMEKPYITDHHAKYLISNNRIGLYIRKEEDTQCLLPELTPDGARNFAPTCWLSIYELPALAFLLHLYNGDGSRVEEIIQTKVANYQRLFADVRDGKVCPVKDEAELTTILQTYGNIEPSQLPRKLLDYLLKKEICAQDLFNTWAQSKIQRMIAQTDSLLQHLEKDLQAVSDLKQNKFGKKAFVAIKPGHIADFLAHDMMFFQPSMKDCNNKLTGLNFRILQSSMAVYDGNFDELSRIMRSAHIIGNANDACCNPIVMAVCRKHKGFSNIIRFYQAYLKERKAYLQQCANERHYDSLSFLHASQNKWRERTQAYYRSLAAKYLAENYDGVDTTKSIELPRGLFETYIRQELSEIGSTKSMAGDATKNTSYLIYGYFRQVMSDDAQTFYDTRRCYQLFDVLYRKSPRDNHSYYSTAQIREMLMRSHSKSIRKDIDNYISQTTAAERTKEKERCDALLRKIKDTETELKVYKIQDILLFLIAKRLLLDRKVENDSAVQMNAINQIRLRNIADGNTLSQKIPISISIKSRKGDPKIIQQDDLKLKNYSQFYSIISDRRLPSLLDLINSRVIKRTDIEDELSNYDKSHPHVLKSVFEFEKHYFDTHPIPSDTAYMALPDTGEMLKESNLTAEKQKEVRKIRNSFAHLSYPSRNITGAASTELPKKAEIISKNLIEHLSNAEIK
Procedure: (§1) 293T-AQp1 cells were transfected with the verification vectors targeting the endogenous gene AQp1 mRNA of Cas13 m.2, Cas13 m.3, Cas13 m.5, CasRfg.2, Cas13 m.2-r, Cas13 m.3-r, Cas13 m.5-r, and CasRfg.2-r, and a control plasmid (which was the same as the verification vector plasmid targeting the endogenous gene AQp1 mRNA of CasRx in the aforementioned Example 5) at 800 ng in a 24-well plate. The negative control group was transfected with the CasRx-BpiI plasmid in the aforementioned Example 5.
(§2) The transfection method was as follows: [0296] 1. The cells were digested by trypsin (0.25% of Trypsin, EDTA, Thermo, 11058021), counted, and plated into a 24-well plates at 2×10⁵ cells according to 500 uL per well. [0297] 2. For each transfected sample, the complex was prepared according to the following steps: [0298] a. each well of the 24-well plate into which the cells were added, were added with 50 uL of serum-free Opti-MEM I (Thermo, 25200056) reduced serum medium for dilution of the aforementioned plasmid DNA, and mixed gently; [0299] b. it was gently mixed with Lipofectamine 2000 (Thermo, 11668019) before use, and then 1.8 uL of the Lipofectamine 2000 was diluted in each well, i.e., in 50 uL of the Opti-MEM I medium. It was incubated at room temperature for 5 minutes. Note: it was continued to perform step c within 25 minutes; [0300] c. after incubation for 5 minutes, the diluted DNA was combined with the diluted Lipofectamine 2000. They were gently mixed and incubated at room temperature for 20 minutes (the solution might be cloudy visually). Note: the complex was stabilized at room temperature for 6 hours.
(§3) At 72 h after transfection, the cells were subjected to RNA extraction with a SteadyPure Universal RNA Extraction Kit AG21017 kit, and the RNA concentration was detected with an ultramicro spectrophotometer. The RNA product was reverse transcribed by using an Evo M-MLV Mix Kit with gDNA Clean for qPCR AG11728 reverse transcription kit, and the reverse transcribed product was detected by using a SYBR Green Premix Pro Taq HS qPCR Kit (Low Rox Plus) AG11720 qPCR kit.

Cas13m.3 = target: T2, Cas13m.3 (uncultured Bacteroidetes bacterium)
T2 chain: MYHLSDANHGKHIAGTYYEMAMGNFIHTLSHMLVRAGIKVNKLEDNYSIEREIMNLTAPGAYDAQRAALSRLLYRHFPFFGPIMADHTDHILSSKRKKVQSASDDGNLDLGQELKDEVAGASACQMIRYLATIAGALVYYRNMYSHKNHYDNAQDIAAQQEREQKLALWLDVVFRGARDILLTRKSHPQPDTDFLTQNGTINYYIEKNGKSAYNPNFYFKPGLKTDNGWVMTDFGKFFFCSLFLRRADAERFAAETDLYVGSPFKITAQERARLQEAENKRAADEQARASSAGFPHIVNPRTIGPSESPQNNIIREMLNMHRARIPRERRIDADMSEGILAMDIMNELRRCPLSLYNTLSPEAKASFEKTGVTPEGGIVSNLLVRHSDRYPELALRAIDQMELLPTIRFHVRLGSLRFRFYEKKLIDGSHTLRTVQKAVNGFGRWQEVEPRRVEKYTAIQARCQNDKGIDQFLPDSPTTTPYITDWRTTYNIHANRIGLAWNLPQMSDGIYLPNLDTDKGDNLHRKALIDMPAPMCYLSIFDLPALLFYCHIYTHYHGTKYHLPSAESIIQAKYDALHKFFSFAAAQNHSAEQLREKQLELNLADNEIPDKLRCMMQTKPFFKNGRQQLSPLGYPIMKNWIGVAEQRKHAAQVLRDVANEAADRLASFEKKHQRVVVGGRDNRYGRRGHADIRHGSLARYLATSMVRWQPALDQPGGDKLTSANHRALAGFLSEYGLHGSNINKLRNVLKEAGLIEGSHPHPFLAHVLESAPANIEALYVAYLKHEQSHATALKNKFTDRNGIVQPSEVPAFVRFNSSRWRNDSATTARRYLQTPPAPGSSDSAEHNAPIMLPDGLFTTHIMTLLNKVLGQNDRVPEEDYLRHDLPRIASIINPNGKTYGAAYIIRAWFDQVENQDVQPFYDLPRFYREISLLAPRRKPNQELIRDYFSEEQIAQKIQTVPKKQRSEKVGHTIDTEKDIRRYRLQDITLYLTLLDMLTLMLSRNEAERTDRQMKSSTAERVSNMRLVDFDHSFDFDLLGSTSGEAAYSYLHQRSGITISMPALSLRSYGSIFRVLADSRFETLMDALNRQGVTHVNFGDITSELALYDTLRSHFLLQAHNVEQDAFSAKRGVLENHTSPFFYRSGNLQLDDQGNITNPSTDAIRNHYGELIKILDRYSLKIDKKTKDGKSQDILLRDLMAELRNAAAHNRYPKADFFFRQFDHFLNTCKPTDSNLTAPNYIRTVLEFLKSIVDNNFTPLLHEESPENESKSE
Procedure: as §1, §2, §3

Cas13m.5 = target: T3, Cas13m.5 (Bacteroidetes bacterium)
T3 chain: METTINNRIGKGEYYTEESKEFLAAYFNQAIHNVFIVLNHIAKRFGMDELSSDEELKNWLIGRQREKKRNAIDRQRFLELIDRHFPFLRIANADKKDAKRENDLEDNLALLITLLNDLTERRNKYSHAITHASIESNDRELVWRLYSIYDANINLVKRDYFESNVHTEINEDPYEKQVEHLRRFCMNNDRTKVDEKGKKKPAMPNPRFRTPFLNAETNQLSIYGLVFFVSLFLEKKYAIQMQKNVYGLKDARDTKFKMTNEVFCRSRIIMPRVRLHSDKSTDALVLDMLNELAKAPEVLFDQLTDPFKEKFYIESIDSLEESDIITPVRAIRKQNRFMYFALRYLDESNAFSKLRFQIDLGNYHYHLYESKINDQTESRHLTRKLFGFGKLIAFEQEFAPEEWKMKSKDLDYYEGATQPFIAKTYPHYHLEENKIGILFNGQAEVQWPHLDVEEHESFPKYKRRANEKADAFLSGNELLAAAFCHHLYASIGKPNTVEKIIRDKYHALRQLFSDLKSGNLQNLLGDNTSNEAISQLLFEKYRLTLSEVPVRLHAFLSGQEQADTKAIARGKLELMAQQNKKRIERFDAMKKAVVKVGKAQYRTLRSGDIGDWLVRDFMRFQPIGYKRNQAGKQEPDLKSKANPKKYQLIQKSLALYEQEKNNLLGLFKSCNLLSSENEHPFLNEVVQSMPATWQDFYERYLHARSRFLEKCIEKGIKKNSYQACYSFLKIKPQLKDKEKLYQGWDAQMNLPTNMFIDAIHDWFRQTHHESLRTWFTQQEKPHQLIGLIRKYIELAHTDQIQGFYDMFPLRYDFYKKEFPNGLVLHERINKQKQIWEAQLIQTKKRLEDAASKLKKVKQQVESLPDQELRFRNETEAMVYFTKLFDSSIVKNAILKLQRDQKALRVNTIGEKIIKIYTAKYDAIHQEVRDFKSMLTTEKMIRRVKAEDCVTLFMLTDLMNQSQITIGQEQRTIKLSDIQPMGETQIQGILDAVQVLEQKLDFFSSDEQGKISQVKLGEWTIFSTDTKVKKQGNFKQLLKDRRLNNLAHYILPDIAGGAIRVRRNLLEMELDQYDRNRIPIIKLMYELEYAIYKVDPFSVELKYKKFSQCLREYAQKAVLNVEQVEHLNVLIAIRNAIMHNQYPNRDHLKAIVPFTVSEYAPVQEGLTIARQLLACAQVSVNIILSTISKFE
Procedure: as §1, §2, §3

CasRfg.2 (Cas13d) = target: T4, CasRfg.2 (Cas13d) (metagenome)
T4 chain: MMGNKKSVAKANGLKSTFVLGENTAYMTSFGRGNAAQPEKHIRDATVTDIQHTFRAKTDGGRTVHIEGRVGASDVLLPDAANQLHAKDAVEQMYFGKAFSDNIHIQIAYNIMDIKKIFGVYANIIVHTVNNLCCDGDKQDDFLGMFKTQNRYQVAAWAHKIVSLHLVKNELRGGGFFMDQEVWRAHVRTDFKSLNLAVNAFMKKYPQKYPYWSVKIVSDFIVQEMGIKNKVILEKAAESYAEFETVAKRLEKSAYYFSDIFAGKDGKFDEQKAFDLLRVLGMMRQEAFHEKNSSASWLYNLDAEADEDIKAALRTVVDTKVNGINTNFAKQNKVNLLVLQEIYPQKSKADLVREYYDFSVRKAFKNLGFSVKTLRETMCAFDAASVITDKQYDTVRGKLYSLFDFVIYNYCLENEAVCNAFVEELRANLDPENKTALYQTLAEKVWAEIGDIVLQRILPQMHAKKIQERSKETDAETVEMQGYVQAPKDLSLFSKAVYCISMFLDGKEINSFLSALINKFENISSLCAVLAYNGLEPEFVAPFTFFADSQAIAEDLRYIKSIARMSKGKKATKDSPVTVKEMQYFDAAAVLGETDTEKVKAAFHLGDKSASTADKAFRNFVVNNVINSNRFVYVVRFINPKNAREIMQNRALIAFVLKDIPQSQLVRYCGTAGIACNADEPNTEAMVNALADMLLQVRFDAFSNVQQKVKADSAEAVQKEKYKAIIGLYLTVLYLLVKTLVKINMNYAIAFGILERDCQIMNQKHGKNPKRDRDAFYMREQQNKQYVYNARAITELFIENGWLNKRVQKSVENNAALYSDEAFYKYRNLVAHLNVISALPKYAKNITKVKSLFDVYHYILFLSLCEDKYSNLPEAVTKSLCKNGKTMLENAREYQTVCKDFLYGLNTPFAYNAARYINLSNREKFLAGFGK
Procedure: as §1, §2, §3

B1: AQp1 gRNA Cas13m.2-r (DR-guide) ; AQp1 mRNA site (20 nt guide) (ssRNA ; ssRNA)
RNA 1: GUUGUAGAUGACCUCGUUUUGGAGGGGAAACACAACGAAGACAAAGAGGGUCGUGG
RNA 2: CCACGACCCUCUUUGUCUUC
activity (Cas13m.2): 0.83 relative mRNA level

B2: AQp1 gRNA Cas13m.3-r (DR-guide) ; AQp1 mRNA site (20 nt guide) (ssRNA ; ssRNA)
RNA 1: GUUGUAGAAGCCGUUCAUUCGGGACGGUAUGACAACGAAGACAAAGAGGGUCGUGG
RNA 2: CCACGACCCUCUUUGUCUUC
activity (Cas13m.3): 0.78 relative mRNA level

B3: AQp1 gRNA Cas13m.5-r (DR-guide) ; AQp1 mRNA site (20 nt guide) (ssRNA ; ssRNA)
RNA 1: GUUGUGUGUGCCUUUCAAAUUGAAGGCGUUCCCAACGAAGACAAAGAGGGUCGUGG
RNA 2: CCACGACCCUCUUUGUCUUC
activity (Cas13m.5): 0.74 relative mRNA level

B4: AQp1 gRNA CasRfg.2-r (guide-DR) ; AQp1 mRNA site (20 nt guide) (ssRNA ; ssRNA)
RNA 1: GAAGACAAAGAGGGUCGUGGGGUUUUACACCCGUGUAAAACUACACAGUUCUAAAAC
RNA 2: CCACGACCCUCUUUGUCUUC
activity (CasRfg.2 (Cas13d)): 0.67 relative mRNA level
